In one experiment the target is T1, O9.
T1 chain: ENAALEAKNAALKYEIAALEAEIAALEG
Briefly: two-hybrid library CC0.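 Further: natural log of median RNA to DNA barcode read ratio; higher means stronger binding.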 The following applies: mean of both orientations.

For the next experiment, the target named is T2, O2.
T2 chain: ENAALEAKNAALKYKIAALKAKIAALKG
Description: two-hybrid library CC0.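 Further: natural log of median RNA to DNA barcode read ratio; higher means stronger binding.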 The settings on record: mean of both orientations.

For the next experiment, the target named is T3, O7.
T3 chain: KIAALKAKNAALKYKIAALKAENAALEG
Briefly: two-hybrid library CC0.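 Further: natural log of median RNA to DNA barcode read ratio; higher means stronger binding.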 The following applies: mean of both orientations.

For the next experiment, the target named is T4, O6.
T4 chain: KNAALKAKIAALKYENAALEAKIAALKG
Briefly: two-hybrid library CC0.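 Further: natural log of median RNA to DNA barcode read ratio; higher means stronger binding.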 The settings on record: mean of both orientations.

In the next experiment the target is T5, O4.
T5 chain: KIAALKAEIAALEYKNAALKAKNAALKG
Briefly: two-hybrid library CC0. The settings on record: mean of both orientations.

A further experiment addresses T6, O16.
T6 chain: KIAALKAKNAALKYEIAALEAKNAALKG
Description: two-hybrid library CC0. The following applies: mean of both orientations.

Another experiment deals with T7, O8.
T7 chain: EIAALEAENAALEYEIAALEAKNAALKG
Description: two-hybrid library CC0. The following applies: mean of both orientations.

The target in a further experiment is T8, O5.
T8 chain: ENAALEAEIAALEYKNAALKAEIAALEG
Briefly: two-hybrid library CC0. The settings on record: mean of both orientations.

The target in the next experiment is T9, O3.
T9 chain: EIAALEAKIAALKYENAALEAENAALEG
Description: two-hybrid library CC0. The settings on record: mean of both orientations.

The target of a further experiment is T10, AP2-AA.
T10 chain: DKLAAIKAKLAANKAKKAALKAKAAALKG
Description: two-hybrid library CCmax.

A further experiment has as its target T11, P11-AA.
T11 chain: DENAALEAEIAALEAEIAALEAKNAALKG
Description: two-hybrid library CCmax.

A further experiment addresses T12, AP4-AA.
T12 chain: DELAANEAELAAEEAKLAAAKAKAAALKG
Briefly: two-hybrid library CCmax.

The target of a further experiment is T13, AP1-AA.
T13 chain: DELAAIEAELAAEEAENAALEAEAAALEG
Description: two-hybrid library CCmax.

Another experiment deals with T14, P7-AA.
T14 chain: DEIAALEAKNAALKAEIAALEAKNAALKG
Description: two-hybrid library CCmax.

Another experiment deals with T15, P1-AA.
T15 chain: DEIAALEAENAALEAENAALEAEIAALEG
Description: two-hybrid library CCmax.

For another experiment, the target named is T16, P8-AA.
T16 chain: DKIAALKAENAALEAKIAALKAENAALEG
Description: two-hybrid library CCmax.

A further experiment concerns the target T17, P12-AA.
T17 chain: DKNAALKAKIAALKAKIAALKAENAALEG
Briefly: two-hybrid library CCmax.

The next experiment has as its target T18, P9-AA.
T18 chain: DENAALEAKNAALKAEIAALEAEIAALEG
Description: two-hybrid library CCmax.

For a further experiment, the target named is GCN2_T. Description: two-hybrid library CCmax.
The next experiment deals with T19, AP8-AA.
T19 chain: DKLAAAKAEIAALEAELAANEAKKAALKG
Description: two-hybrid library CCmax.

The target of another experiment is T20, P10-AA.
T20 chain: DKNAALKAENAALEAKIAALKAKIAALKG
Briefly: two-hybrid library CCmax.

For another experiment, the target named is T21, AP7-AA.
T21 chain: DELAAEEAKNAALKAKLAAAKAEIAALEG
Briefly: two-hybrid library CCmax.

The target of another experiment is T22, P4-AA.
T22 chain: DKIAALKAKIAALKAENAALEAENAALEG
Briefly: two-hybrid library CCmax.

Another experiment concerns the target T23, P2-AA.
T23 chain: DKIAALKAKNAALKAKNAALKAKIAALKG
Briefly: two-hybrid library CCmax.

Another experiment addresses T24, AP5-AA.
T24 chain: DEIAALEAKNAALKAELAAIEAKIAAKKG
Briefly: two-hybrid library CCmax.

A further experiment concerns the target T25, AP3-AA.
T25 chain: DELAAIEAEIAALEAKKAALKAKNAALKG
Description: two-hybrid library CCmax.

For another experiment, the target named is T26, AP6-AA.
T26 chain: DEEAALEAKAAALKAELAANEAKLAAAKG
Briefly: two-hybrid library CCmax.

The target in the next experiment is T27, P3-AA.
T27 chain: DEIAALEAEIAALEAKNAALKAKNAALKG
Description: two-hybrid library CCmax.

The next experiment addresses T28, 4H_BCR.
T28 chain: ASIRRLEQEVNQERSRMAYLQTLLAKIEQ
Description: two-hybrid library CCmax.

Where two headings read alike, the source gives them in different places.

B1: O16 (peptide)
chain: KIAALKAKNAALKYEIAALEAKNAALKG
B1: the interaction score is -2.65 with O9; -2.67 with O2; -2.48 in the experiment with O7; -1.77 with O6; -2.71 with O4; -2.76 in the experiment with O16. Moreover, the interaction score with O8 is 0.382; with O5 it was -2.68; with O3 it was -2.69.

B2: AP1-AA (peptide)
chain: DELAAIEAELAAEEAENAALEAEAAALEG
Take B2: the interaction score was -1.59 with AP2-AA (mean of both orientations); -1.38 in the experiment with P11-AA (mean of both orientations); -1.14 with AP4-AA (mean of both orientations); -1.8 in the experiment with AP1-AA; -1.65 with P7-AA (mean of both orientations); -1.54 with P1-AA (mean of both orientations). For the same molecule, the interaction score in the experiment with P8-AA (mean of both orientations) is -1.49; with P12-AA (mean of both orientations) it was -1.66; in the experiment with P9-AA (mean of both orientations) it was -1.77; in the experiment with GCN2_T, -2.11; with AP8-AA (mean of both orientations), -1.34; in the experiment with P10-AA (mean of both orientations), -1.61. In addition, the interaction score with AP7-AA (mean of both orientations) is -1.41; with P4-AA (mean of both orientations) it was -1.4; in the experiment with P2-AA (mean of both orientations), 0.117; with AP5-AA (mean of both orientations), -1.52; with AP3-AA (mean of both orientations), -1.43; with AP6-AA (mean of both orientations), -2.13. In addition, in the experiment with P3-AA, the interaction score was -1.19.

B3: 4H_APH2 (peptide)
chain: KRLKQLRKRKQAKRWEEAQIEKELQAIEK
Take B3: the interaction score with AP2-AA is -2.23; with P11-AA, -1.87; with AP4-AA, -1.35; in the experiment with AP1-AA, -1.22; with P7-AA, -1.59; in the experiment with P1-AA, -1.37. Moreover, the interaction score is -1.79 with P8-AA; -1.77 in the experiment with 4H_BCR; -1.31 with P12-AA; -1.85 with P9-AA; -1.53 in the experiment with AP8-AA; -1.63 in the experiment with P10-AA. Besides, the interaction score was -1.91 with AP7-AA; -1.76 with P4-AA; -1.71 with AP5-AA; -1.71 with AP3-AA; -1.16 in the experiment with AP6-AA.

B4: 4H_APH3 (peptide)
chain: KRAKQLRKRLQALEWQLAQIRKELQAAEK
On to B4, for which the interaction score is -1.83 in the experiment with AP2-AA; 0.988 with P11-AA; -1.76 with AP4-AA; -1.7 with AP1-AA; -1.07 with P7-AA; -1.41 in the experiment with P1-AA. In addition, the interaction score was -1.41 in the experiment with P8-AA; -1.42 in the experiment with 4H_BCR; -1.53 in the experiment with P12-AA; -0.77 with P9-AA; -0.758 in the experiment with AP8-AA; -0.731 with P10-AA. In addition, the interaction score with AP7-AA was -1.94; with P4-AA it was -2.3; in the experiment with P2-AA, -1.85; with AP5-AA it was -0.968; in the experiment with AP6-AA it was -2.3; with P3-AA, -1.01.
